Source: patent publication US20050009067A1, “Expression profile of pancreatic cancer” (priority 2003, published 2005)
One block for each molecule: values may come before it.

Legend:
[1] = target: RAGE (endogenous, of NIH3T3 cells) (UniProt Q62151); test: cell-based or functional assay
S100 proteins = details: Okada et al. 2002; cited from earlier work
NIH3T3 cells [2] = test: NIH3T3 cell survival after apoptotic insults (5-FU, anoikis on polyHEMA); format: cell-based
Method: Apoptosis was induced in NIH3T3 cells either by prevention of cell adhesion to a solid substrate (anoikis) or by use of 5-flurouracil. To prevent cell adhesion, 6 well plates were covered (3 ml/well) with a solution of polyhydroxyethylmethacrylate (polyHEMA; Sigma-Aldrich) dissolved at 10 mg/ml in ethanol. Plates were kept at 37° C. for 5 days to evaporate solvent completely. Cells were resuspended at 5×10^4 cells/ml and were cultured (1 ml/well) in DMEM medium containing 10% fetal calf serum for different times on polyHEMA coated dishes at 37° C. and 5% CO2. Subsequently, cells were subjected to cell viability studies using MTS or recovered and analyzed for caspase 3 activity.

NIH3T3 cells [3] = test: Cell growth (MTS) of NIH3T3 cells with exogenously applied purified S100P; format: cell-based
Method: Cell growth was analyzed by using MTS reagent (Promega, Madison, Wis.) as per manufactures directions. For studies on the effects of S100P expression, vector alone and three different clonal S100P stably transfected cell lines (1000 cells/well) were seeded into 96 well plates and cell growth was studied from 0-120 hrs. For studies on the effects of exogenously applied S100P, purified S100P was added at indicated concentrations for specific times. MTS was added to the wells one hour before taking the photometric reading.
Full length S100P cDNA was cloned into pTrcHis2 vector (Invitrogen, Carlsbad, Calif.) and transformed into one shot TOP10 competent E.coli. The bacterial culture was incubated at 37° C. to an OD600=0.6, then IPTG (1 mM) was added and the bacteria were cultured for another 3 hrs. His-S100P was purified using Probond resin column as described by the manufacturer (Invitrogen, Carlsbad, Calif.). The fraction was further dialyzed against 10 mM Tris, pH 8.0, containing 01% Triton X 100 overnight at 4° C. using a Slide-A-Lyzer 10K (Pierce, Rockford, Ill.). Dialyzed protein was further concentrated by Centricon centrifugal filter device YM10 (Millipore, Bedford, Mass.). The purified S100P protein was confirmed by western blot and ELISA and used for in vitro experiments.

Erk 1 & 2 = Erk 1 & 2 phosphorylation in NIH3T3 cells (western blot); format: cell-based
Method: Western blot analysis was utilized for the detection of S100P, RAGE, as well as activated Erks and caspase 3 by minor modifications of previously published methods. Cell lysates were prepared and separated by SDS polyacrylimide gel electrophoresis and transferred to nitrocellulose. Membranes were blocked by overnight incubation at 4° C. in 5% milk solution. S100P was detected usingmonoclonal antibodies (Transduction Laboratories, San Diego, Calif.) by incubating the membrane overnight at 4° C. in antibody diluted 1:100 in 5% milk solution. RAGE was detected using goat polyclonal antibodies (Santa Cruz, Santa Cruz, Calif.) by incubating the transferred membrane in for one hour at room temperature with antibody diluted 1:100 in 5% milk solution. Caspase 3 activation was estimated by detection of pro-caspase 3 and active caspase 3 fragments using rabbit polyclonal antibodies against full length caspase 3 (Santacruz Biotech, Calif.) by incubating the membrane at 4° C. for overnight with antibody diluted 1:100 in 5% milk solution. Erk activation was estimated by detection of phosphorylated forms of Erk 1 and 2 using phospho-p44/42 MAP kinase (Thr202/Tyr204) antibody (Cell Signaling, Beverly, Mass.) and, as a loading control after striping, a rabbit polyclonal antibody for total Erk 1 & 2 (Santa Cruz, Santa Cruz, Calif.) by incubating the membrane at 4° C. overnight with antibody diluted 1:100 in 5% milk solution. Second antibody anti-mouse, anti-rabbit, or anti-goat IgG+HRP was incubated for one hour at room temperature and the signal was detected by ECL detection system (Amersham) as per manufacturer protocol.

NF-κB = NF-κB electrophoretic mobility shift assay in NIH3T3 cells; format: cell-based
Method: Nuclear extracts were prepared and used for electrophoretic mobility shift assays (EMSAs) as previously described (Han et al., Am. J. Physiol. 277:C74 [1999]). For NF-κB DNA binding the reaction was started by addition of 10,000 cpm of the 22-base pair oligonucleotide 5′-AGTTGAGGGGACTTTCCCAGGC-3′ (SEQ ID NO:7) containing the NF-κB consensus sequence that had been labeled with [γ-32P]-ATP (10 mCi/mmol) by T4 polynucleotide kinase. The reaction was allowed to proceed for 30 min at room temperature. For cold competition experiments unlabeled NF-κB oligonucleotide or OCT1 oligonucleotide as a nonspecific competitor (300×) were added to the binding reaction 5 min before the addition of the radiolabeled probe. For antibody supershift assays 2 μl of specific antibodies to NF-κB protein subunits p65, p50, and c-Rel were incubated with nuclear extracts for 1 hour at room temperature prior to the addition of labeled probe. All reaction mixtures were subjected to PAGE on 4.5% gel in 0.5×TBE buffer at 200 V. Gels were dried and directly exposed to the membranes were exposed to a B-1 phosphoimaging screen and visualized by the use of GS-250 Molecular Imaging System (Bio-Rad Laboratories, Richmond, Calif.).

RAGE = target: T1, RAGE (Mus musculus, UniProt Q62151); test: Co-immunoprecipitation (pull-down) of S100P with RAGE from NIH3T3 lysates; format: binding; details: NIH3T3 lysates incubated with S100P and S100P antibody
T1 construct: RAGE was present in the S100P complexes from wild-type NIH3T3 cells incubated with exogenous S100P and S100P antibody; endogenous in cells; host or cells: NIH3T3 cell lysates for RAGE; E. coli TOP10 for the added His-S100P
Method: For co-immunoprecipitation experiments, cell lysates were incubated in the absence or presence of S100P (1 μg) at 4° C. overnight. S100P was immunoprecipitated using mouse monoclonal antibody against S100P (Transduction Laboratories, San Diego, Calif.), for 6 hours at 4° C. and IgG immobolized beads (Pierce, Rockford, Ill.). Antibody associated proteins were electrophoresed on 10% polyacrylamide gel and transferred to nitrocellulose membrane. Transferred membrane was blocked by 5% milk solution overnight at 4° C. RAGE was detected as described.

Chain of RAGE (endogenous, of NIH3T3 cells) (Q62151 23-402 limits assumed): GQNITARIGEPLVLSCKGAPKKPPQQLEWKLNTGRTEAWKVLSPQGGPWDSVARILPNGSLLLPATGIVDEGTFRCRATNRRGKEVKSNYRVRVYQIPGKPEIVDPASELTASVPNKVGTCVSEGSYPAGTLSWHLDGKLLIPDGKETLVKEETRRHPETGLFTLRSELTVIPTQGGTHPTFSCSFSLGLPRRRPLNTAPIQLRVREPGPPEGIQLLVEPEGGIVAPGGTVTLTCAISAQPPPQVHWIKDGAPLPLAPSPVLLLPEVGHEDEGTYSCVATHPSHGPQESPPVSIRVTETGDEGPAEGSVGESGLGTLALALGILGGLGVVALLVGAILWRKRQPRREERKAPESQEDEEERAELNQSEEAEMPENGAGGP
T1 sequence (Q62151 23-402): as the sequence (Q62151 23-402 limits assumed) above

NIH3T3 cell proliferation, fold over control [1]: 2 fold
Molecule: purified His-S100P protein (His-tagged fusion protein of full length S100P made in E. coli) (from UniProt P25815 1-95) (ligand)
survival of NIH3T3 cells after 5 FU [1]: 1 nM

Molecule: CC(C)c1ccc2oc3nc(N)c(C(=O)O)cc3c(=O)c2c1 [amlexanox]
interaction with S100 proteins (S100 proteins): interact with S100 proteins

Molecule: CN(C)CC/C=C1/c2ccccc2COc2ccc(CC(=O)O)cc21 [olopatadine]
interaction with S100 proteins (S100 proteins): interact with S100 proteins

inhibition of S100P activation of Erk [1]: 50 nM | inhibition of S100P activation of Erk, complete [1]: 500 nM
Molecule: synthetic peptide derived from amphoterin (RAGE antagonist peptide)

Molecule: O=c1[nH]cc(F)c(=O)[nH]1 [5-FU, 5-fluorouracil, reference compound]
killing of NIH3T3 cells (NIH3T3 cells [2]; wild-type vs S100P expressing NIH3T3 cells, 5-FU 150 ug/ml (FIG. 5B)): efficiently kill wild-type but not S100P expressing NIH3T3 cells

interaction with RAGE (co-immuno-precipitation) (RAGE): can interact directly with RAGE
B1: S100P: purified S100P generated as a His-tagged fusion protein in bacteria (protein, UniProt P25815 1-95, looked up)
Protein S100-P: MTELETAMGMIIDVFSRYSGSEGSTQTLTKGELKVLMEKELPGFLQSGKDKDAVDKLLKDLDANGDAQVDFSEFIVFVAAITSACHKYFEKAGLK
modifications: His tag
notes: purified S100P generated as a His-tagged fusion protein in bacteria
concentration giving maximal effect on cell proliferation (NIH3T3 cells [3]; NIH3T3 cells): 100 nM | concentration at which effects on cell proliferation were noted (NIH3T3 cells [3]; purified S100P added to NIH3T3 cells, dose-response): 10 pM | time after which significant increase in cell proliferation was noted (NIH3T3 cells [3]; time-course): 48 h | maximal effect on cell proliferation (NIH3T3 cells [3]; with 100 nM S100P): ~2 fold over control | concentration at which protection from the effects of 5 FU was noted (NIH3T3 cells [2]; S100P added to culture medium, NIH3T3): 1 nM | time after which significant protection from anoikis was noted (NIH3T3 cells [2]; time-course): 36 h | concentration at which effects on Erk phosphorylation were noted (Erk 1 & 2; dose-response): 10 pM | concentration giving maximal effects on Erk phosphorylation (Erk 1 & 2; dose-response): 100 nM | duration Erk phosphorylation remained significantly elevated (Erk 1 & 2; purified S100P, NIH3T3): at least 2 hours | time of maximal increase of Erk phosphorylation (Erk 1 & 2; purified S100P, NIH3T3): 30 min | time to significant Erk 1 & 2 phosphorylation (Erk 1 & 2; purified S100P, NIH3T3): ≤ 10 min | duration increase in NF-κB DNA binding was maintained (NF-κB; S100P, NIH3T3, EMSA): at least 2 hours | time to initiation of increase in NF-κB DNA binding (NF-κB; S100P, NIH3T3, EMSA): ≤ 10 min | concentration at which significant effects on NF-κB activation were noted (NF-κB; concentration dependence): 0.1 nM | concentration giving maximal effect on NF-κB activation (NF-κB; concentration dependence): 100 nM
